Assay [1] deals with fluorescently labeled S. mutans XIP (dansyl-GLDWWSL) (Streptococcus mutans). The assay can be described thus: other fluorescence titration; 0.2 μM dansyl-XIP with increasing ComR, 1 h, room temperature, dark; 20 mM HEPES pH 7.5, 100 mM NaCl, 1 mM β-ME; dansyl emission intensity.
In assay [2] the target is ComR S. mutans, full length (Streptococcus mutans).
In assay [3] the target is ComR:dansyl-XIP complex (Streptococcus mutans). Briefly: fluorescence polarisation; steady-state fluorescence anisotropy of 0.2 μM dansyl-XIP with 0.5 μM ComR and increasing Prx, 1 h, room temperature; 20 mM HEPES pH 7.5, 100 mM NaCl, 1 mM β-ME. A general note: In fluorescence polarisation assays a small probe gives low polarisation when free and higher when bound to something large.

Assay [4] has as its target ComR S. mutans DNA-binding domain (DBD) construct (Streptococcus mutans). The assay can be described thus: ITC; 300 μM Prx (or PrxD32A) injected into 20 μM ComR S. mutans or DBD, 25 °C, gel filtration buffer (20 mM Tris-HCl pH 7.5, 100 mM NaCl, 1 mM β-ME); one site model. (In general: In ITC the heat of successive injections is recorded.)
In assay [5] the target is ComR S. mutans, full length (Streptococcus mutans). The assay is described as above.

The results in this text go back to paper PMC8383118.

Broadly, the Kd is a measure of binding affinity in units of concentration. Low values mean a tighter complex, high ones a looser complex. By stoichiometry N is commonly meant a count of units in the complex or per binding partner.

For the molecule ComR S. mutans, full length (receptor), the Kd in assay [1] was found to be 320 nM.

B1: paratox (Prx) from S. pyogenes MGAS315 (natural protein)
chain: MLTYDEFKQAIDRGYITADTVMIVRKNGQIFDYVLPNEKIKNGEIVTDEKVEEVLVELSR
Consider B1, for which, in assay [2], the EMSA: Prx needed for complete inhibition (no DNA band shift) of 4 μM ComR with 8 μM XIP and FAM-labeled comS promoter probe; Prx added with or before XIP (apo-ComR) worked out at 6 µM; the EMSA: Prx needed for complete inhibition (no DNA band shift) when added after the ComR:XIP:DNA complex was allowed to form (activated ComR) worked out at 2 µM. Moreover, the Kd in assay [3] stood at 700 nM. In assay [4], the Kd worked out at 50 nM, the dH was -20.8 kcal/mol and the stoichiometry N is 1. Besides, in assay [5], the Kd was found to be 390 nM, the dH was -11.8 kcal/mol and the stoichiometry N was 1.
